Data reported in the DeepSol protein solubility set.

assay: soluble on expression in E. coli; label from the status in PepcDB or PDB records

Question: With “MFQLLAVCPMGLEAVVAREIQELGYETNVENGRIFFEGDASAIVKANLWLRTADRIKIVVGRFNATTFDELFEQTKALPWESIIDKEGNFPVQGRSVKSTLHSVPDCQAITKKAIVERLRRAYNEKGWLNESGAKYPVEVAILKDNVLLTIDTSGSGLNRRGYRLAQGEAPIKETLAASLIRLANWKGDTPLIDPFCGSGTIAIEACLIAQNIAPGFNREFVSEQWNIMPANIYDDYRDEADKMADYDKEIEVYASDIDPEMVEIAKRNAEEVGLSDIIKFSVKDVNTLTIDTEEPVALIGNPPYGERIGDREEVEEMYRYIGKLMKQHPFLSTYILTSNKEFEYLVNRKATKRRKLFNGYIECTYYQYWGKKTERKTIEN” as the sequence, how does the “soluble on expression in E. coli” value read?
Answer: not soluble

Question: Which “soluble on expression in E. coli” value does the source give for “MFQVKVRGCMTVYPKVQCISYKIDVDKPTVCELTLCLAPNSDVPADRFSNDLFLVVYNNEQKLVGLTRHVLEERKYSTGMMTVNEGDEVMIVGMGTTTNRKRSTTERVPLIEETNKLSKRFK” here?
Answer: not soluble

Question: With “MFQVPDSEGGRAGSRAMKPPGGESSNLFGSPEEATPSSRPNRMASNIFGPTEEPQNIPKRTNPPGGKGSGIFDESTPVQTRQHLNPPGGKTSDIFGSPVTATSRLAHPNKPKDHVFLCEGEEPKSDLK” as the sequence, how does the “soluble on expression in E. coli” value read?
Answer: not soluble

Question: Which “soluble on expression in E. coli” value does the source give for “MFRAAAPGQLRRAASLLRFQSTLVIAEHANDSLAPITLNTITAATRLGGEVSCLVAGTKCDKVAQDLCKVAGIAKVLVAQHDVYKGLLPEELTPLILATQKQFNYTHICAGASAFGKNLLPRVAAKLEVAPISDIIAIKSPDTFVRTIYAGNALCTVKCDEKVKVFSVRGTSFDAAATSGGSASSEKASSTSPVEISEWLDQKLTKSDRPELTGAKVVVSGGRGLKSGENFKLLYDLADQLHAAVGASRAAVDAGFVPNDMQVGQTGKIVAPELYIAVGISGAIQHLAGMKDSKTIVAINKDPEAPIFQVADYGIVADLFKVVPEMTEILKKK” here?
Answer: soluble

Question: For “MFRSSFCKNLENATSHLRLEPDWPSILLICDEINQKDVTPKNAFAAIKKKMNSPNPHSSCYSLLVLESIVKNCGAPVHEEVFTKENCEMFSSFLESTPHENVRQKMLELVQTWAYAFRSSDKYQAIKDTMTILKAKGHTFPELREADAMFTADTAPNWADGRVCHRCRVEFTFTNRKHHCRNCGQVFCGQCTAKQCPLPKYGIEKEVRVCDGCFAALQRG”, which “soluble on expression in E. coli” value is on record?
Answer: soluble

Question: With “MFRSSLTHLQAVSRVFIMGGHITPFVGKGSKLFIDKKHPDFGKKQNMTLEEILATTVQHTIENTGLNGKEDIVDQVVVGNFLGELFSSQGHLGPAAIGSLTYGQAGAKNPLMYKPAMRVEGACASGGLAVVSATNALKAGSADIALAVGVEVQTTATARVGGDYLARAADYQRQRKLDDFTFPCLFAKRMKYIAEHNHFTMEDTARVAAKAYANGNRNPLAHMHTRKLSFEQCNGEDPSNVKFLGNETYKEYLRMTDCSQVSDGGAGVVLANEEGLKKMGLSPNDSRLVEIKSIACAVSNLYEDPDDACCMFTSRQAAQKALSMANVKPSDLNVAEVHDCFTIAEMLMYEALGIAEYGHAKDLIRNGETTLEGRIPVNTGGGLLSFGHPVGATGIKQVMEVYRQMKGQCGAYQMKKIPALGATLNMGGDDKTAVSAVLQNI” as the sequence, how does the “soluble on expression in E. coli” value read?
Answer: not soluble

Question: For “MFSDTDISMMENALRLAALGRFSTSPNPRVGCVIAHGSQIVGQGFHVKAGEPHAEVHALRQAGEMAQGATAFVTLEPCSHYGRTPPCAEALVRAGVSRVVAAMRDPNPLVAGKGLALLEAAGIKTECGLLEHQARELNRGFLSRIERRRPFVRLKCAVSLDGKTALSDGSSFWITGEDARADVQVLRAESCAVLTGIGTVLADNPRLNVRAFPTLRQPARIVLDSRLRLPPNSHLVTDGQSPTYIATLERNEDRLHPYREHAHVRILMPSETADSKIDLHHLMRLLADEGFGEIMVEAGSELTSAFLAENLADEIVLYRSPKILGSGKDLFSLLENRAALSAPPLWTPVSSEILGHNIKTVFRKNGNAF”, which “soluble on expression in E. coli” value is on record?
Answer: soluble

Question: Which “soluble on expression in E. coli” value does the source give for “MFSIIIPIYNSENYLRYSIESVLNQSIGFKENIELILIDDGSVDSSPQICESFKNLYPNNIKIMKIENSGPSAARNCGLSNVSERSKFIGFLDSDDAFSQNALQSVYDFFCDSEHVNIAVLPVYYTGEKEGGHKLNNRFEKGTRVINILNDYKAIHFYIGGTFYRRHTLTSTVLFDESIKFWEDAIFFNQLLLKEKRYGAVAEGKYFYRKRKEQDSLVDRSWFNKKRYTYLLNECYMTLLMDSFNKYDIVLPYLQFLIVYHIKLFLYPNYRDVYKSVLDQQEQRVFVDDFIKVLKFIDPQFIKEQDMPMYYKEFMFHLLKENTEALENIKKERVLHSSCTVTSAKIKGLRLELTGHFINQYYEMKENDRIYIKYFKRLKKCKRKELKKTIEVWGYKLRDFRYAGFVVEIPIWAFAFDFVLKTPNDSLELNHVNIFKSLLTRVFKKRLEHHHHHH” here?
Answer: soluble

Question: For “MFSKLAHLQRFAVLSRGVHSSVASATSVATKKTVQGPPTSDDIFEREYKYGAHNYHPLPVALERGKGIYLWDVEGRKYFDFLSSISAVNQGHCHPKIVNALKSQVDKLTLTSRAFYNNVLGEYEEYITKLFNYHKVLPMNTGVEAGETACKLARKWGYTVKGIQKYKAKIVFAAGNFWGRTLSAISSSTDPTSYDGFGPFMPGFDIIPYNDLPALERALQDPNVAAFMVEPIQGEAGVVVPDPGYLMGVRELCTRHQVLFIADEIQTGLARTGRWLAVDYENVRPDIVLLGKALSGGLYPVSAVLCDDDIMLTIKPGEHGSTYGGNPLGCRVAIAALEVLEEENLAENADKLGIILRNELMKLPSDVVTAVRGKGLLNAIVIKETKDWDAWKVCLRLRDNGLLAKPTHGDIIRFAPPLVIKEDELRESIEIINKTILSF”, which “soluble on expression in E. coli” value is on record?
Answer: soluble

Question: For “MFSRGASTMQSRELREQLLGCVKSRKSLHVTGPPGSGKSTFVSRLAEALRVKGCRLGGFMAPEVRRGGRRVAFKIVDIASGEEGYLAVADESLAAPGGRRARHGRYLVLVDEAWRVMSHAIRNAFEHADIIIVDEIGPMELAVPGFREALTEILDSGKPLVTVFHRRLRTLDPGLYKLLERGCIVWLDERNRGPLIRLVSEIASALSNEACGNSLEHHHHHH”, which “soluble on expression in E. coli” value is on record?
Answer: not soluble

Question: For “MFTAGSATVTPKLNGVAGPAFQVIKDSLTLGLNALTLTDVTKNAAYGVEIESLVLEINAPAA”, which “soluble on expression in E. coli” value is on record?
Answer: soluble

Question: With “MFTIRKARIDDCGLINQMAGEVFPATYQEILSPGQLDYMMDWMYSPENIRKQMEEEGHVYFIAYEGDEPCGYVSVQQQEENVFHLQKIYVLPHFQGAHCGSFLFREAVRYIKEVHPEPCLMELNVNRNNKALLFYERMGMRKLREGDFPIGNGYYMNDYIMGLDI” as the sequence, how does the “soluble on expression in E. coli” value read?
Answer: not soluble

Question: For “MFVDRQRIDLLNRLIDARVDLAAYVQLRKAKGYMSVSESNHLRDNFFKLNRELHDKSLRLNLHLDQEEWSALHHAEEALATAAVCLMSGHHDCPTVITVNADKLENCLMSLTLSIQSLQKHAMLEKA”, which “soluble on expression in E. coli” value is on record?
Answer: soluble

Question: With “MFVFMLLLLLPFTISKAKDFPANPIEKAGYKLDFSDEFNGPTLDREKWTDYYLPHWCKDPESAKANYRFENGSLVEYITEDQKPWCPEHDGTVRSSAIMSFDKSWIHNFSGTTDNHERNEWRGYTTKYGYFEIRAKLSNTGGGGHQAWWMVGMQDDTNDWFNSKQTGEIDILETFFSKKDTWRIAAYGWNDPNFQTSWTISEDKVPSGDPTSEYHIYAMEWTPTALKFYYDNELFKVIYGSPDYEMGTILNIYTDAGSGAHNDVWPKEWAIDYMRVWKPVDGYKESESLNNYLIRNRQTGKFLYIEENNDKVSYGDITLKNEKNAKWSKEYRDGYTLLKNNETGEYLNIENQTGYIEHGKVPKTWWSAQWSEVPVDGYTRFVNRWKPNMSIHTESYEGVLQYGNVPNTYWTSQWQLIPVE” as the sequence, how does the “soluble on expression in E. coli” value read?
Answer: soluble

Question: Which “soluble on expression in E. coli” value does the source give for “MFVKNVNFYYRQILEKFENSYFAEDLTKVIIGIDCDYLDANELSFSEFKAKYYEALSKNKICDFAGFFGVFSANFVSLFEKIPLSSKKNYDFPLFLFANAKAYLIYEKNSKMFFKFGASKYFEYLKDDIEPMKKKQKNDFEILNSLEDEKNDFLKMCEKAKEYLLSGDIFQVVLSKQLCIKHQVNAFDYYESLSALNPSAYMFYFPSKYGVVLGSSPEFLLKIKKREIYLAPIAGTRNLENNCDLLALEKDLLSDEKELSEHKMLVDLARNDASKFGTQTRVENLFSIIKNKFVMHIVSEVYANMKEDASIFDVIEAVFPAGTLSGAPKIRALEITSELEDCDRGIYGGAVGFLNFNEDITLAILIRCAFFTQDKAYLASGAGIVLQSESQKEYAEICAKRKALLVAFENLKKENQ” here?
Answer: not soluble
